experiment: yeast display, Sf9 membrane polyspecificity reagent, FACS + sequencing; frameworks hold sequencing errors
Summary of the method: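 A nanobody's polyreactivity label depends on the gate it was sorted from. Yeast display cells were stained with 10% biotinylated, detergent-solubilized Sf9 membrane reagent for 1 hour at 4 °C, enriched on streptavidin microbeads and sorted by FACS. The low and high (top ~1%) gates were set on anti-HA fluorescence for expression and streptavidin fluorescence for reagent binding.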

Sequence | polyreactivity (PSR sort gate)
QVQLVESGGGLVQAGGSLRLSCAASGFTFEIYAMGWYSQAPGKVRELVAAISKSGGSTYYADSVKGRFTISRDNAKKRVYLQMNSLKPEDSSVYSCAARYKALYDYWGQGTQVTVSS | high polyreactivity
QVQLVESGGGLVQAGGSLRLSCAASGFTFEKYVMGWYRQAPGKEREFVAAITRSGGRTYYADSVKGRFTISRDNAKNTVYLQMNSLKPEDSAVYYCAAAFSRSDTGGGSWGQGTEVTVSS | high polyreactivity
QVQLVESGGGLVQAGGSLRLSCAASGFTFERNTMGWYRQAPGKERELVSTITRRGTSTYYADSVKGRFTISRDNAKNTVYLQMNSLKPEDTAVYYCAVYGYRTKYGYWGQGTQVTVSS | high polyreactivity
QVQLVESGGGLVQAGGSLRLSCAASGFTFERYAMGWYRPAPGKDRELVAAITGSGGSTYYADSVKGRFTIARDNATNTVYLQMNSLKPEDTAFYYCARDSSLFRLRDYWGQGTQVTVSS | low polyreactivity
QVQLVESGGGLVQAGGSLRLSCAASGFTFERYTMGWYRQAPGKEREMVATISRRSGRTSYADSVKGRFTISRDYAKNTVYLQMNRLQPEDTAVYYCAVDDAYPDRYDYWGQGTQVTVSS | high polyreactivity
QVQLVESGGGLVQAGGSLRLSCAASGFTFETYVMGWYRQAPGKERELVAAISRRGGSTYYADSVKGRFTISRDNAKNTVYLQMNSLKPEDTAVYYCGKDGGWSRLHYNYWGQGTQVTVSS | high polyreactivity
QVQLVESGGGLVQAGGSLRLSCAASGFTFEWNTMGWYRPAPGKERELVARINWSSGRTYYADSVKGRFTISRDNAKNTVYLQMNSLKPEDTAVYYCAADTYDWRTGYKDDYWGQGTQVTVSS | high polyreactivity
QVQLVESGGGLVQAGGSLRLSCAASGFTFEYNDMGWYRQAPGIERELVDSISYDSDSTYYADSVKGRFTISRDNAKNTVYLQMNRLKPEDTAVYYCNAGSSYHEYGYWGQGTQVTVSS | high polyreactivity
QVQLVESGGGLVQAGGSLRLSCAASGFTFEYNDMGWYRQAPGKERELVASISYDSDSTYYAVSVKGRFTISRDNAKNTVYLQMNSLKPEDTAVYYCNAGSSYHEYGYWGQGTQVTVSS | high polyreactivity
QVQLVESGGGLVQAGGSLRLSCAASGFTFEYYAMGWYRQAPGKERELVAVITWNGGSTYYADSVKGRFTISRDNAKNTVYLQMNSLKPEDTAVYYCNVVPYLYNGGSHRYNYWGQGTQVTVSS | high polyreactivity
QVQLVESGGGLVQAGGSLRLSCAASGFTFFDNAMGWYRQAPGKERELVAAITWSDGSTYYADSVKGRFTISRDNAKNTVYLQMNSLKAEDTAVYYCAVGFISYSYSNYYDVWYEYYYWGQGTQVTVSS | low polyreactivity
QVQLVESGGGLVQAGGSLRLSCAASGFTFFDYVMGWYRQAPGKERELVAAISSGGSTYYADSVKGRFTISRDNAKNTVYLQMNSLKPEDTAVYYCATDNGYPDDATDGYYSLYDYWGQGTQVTVSS | low polyreactivity
QVQLVESGGGLVQAGGSLRLSCAASGFTFFEDNAMGWYRQAPGKERELVAAITSGGSTNYADSVKGRFTISRDNAKNTVYLQMISLKPEDTAVYYCAKDRVPLKTRFYYFPWGYDYWGQGTQVTVSS | low polyreactivity
QVQLVESGGGLVQAGGSLRLSCAASGFTFFGDYAMGWYRQAPGKERELVAAIDWSGGTTYYADSVKGRFTISRDNAKNTVYLQMNSLKPEDTAVYYCAKDYYSDGIYYEYWGQGTQVTVSS | high polyreactivity
QVQLVESGGGLVQAGGSLRLSCAASGFTFFHYAMGWYRQAPGKERELVAAINTRGSRTYYADSVKGRFTISRDNAKNTVYLQMNSLKPEDTAVYYCAADSVQVYAWQYYYWGQGTQVTVSS | high polyreactivity
QVQLVESGGGLVQAGGSLRLSCAASGFTFFHYDMGWYRQAPGKERELVAAINTRGSRTYYADSVKGRFTISRDNAKNTVYLQMNSLKPEDTAGYYSAADSVQVYAGQYYYWGQGTQVTVSS | high polyreactivity
QVQLVESGGGLVQAGGSLRLSCAASGFTFFSNAMGWYRQAPGKERELVAAITSSGGSTYADSVKGRFTISRDNAKNTVYLQMNSLKPEDTAVYYCAADALAPPGGFKEYDYWGQGTQVTVSS | low polyreactivity
QVQLVESGGGLVQAGGSLRLSCAASGFTFFTYTMGWYRQAPGKERELVAAISRDGARTNYADSVKGRFTISRDNAKNTVYLQMNSLKPEDTAVYYCAAPTSHLYTEKYDYWGQGTQVTVSS | high polyreactivity
QVQLVESGGGLVQAGGSLRLSCAASGFTFFVYAMGWYRQAPGKERELVATINWSGASTYYADSVKGRFTISRDNAKNTVYLQMKSLKPEDTAVYYCAKDGHYPLVYLAFDYWGQGTQVTVSS | low polyreactivity
QVQLVESGGGLVQAGGSLRLSCAASGFTFFVYAMGWYRQAPGKERELVAVITSGGTTNYADSVKGRFTISRDNAKNTVYLQMNSLKPEDTAVYYCNARGEKRGYYYWGQGTQVTVSS | high polyreactivity
QVQLVESGGGLVQAGGSLRLSCAASGFTFGAYAKGWSRQAPGKEWELVASISWSGTSTYYADSVKGRFTISRDNAKNTVYLQMNSLKPEDTAVYYCAAGYRSTRYDYWGQGTQVTVSS | high polyreactivity
QVQLVESGGGLVQAGGSLRLSCAASGFTFGDNAMGWYRQAPWKERELVADIDSDGSTYYADSVKGRFTISRDNAKNTFYLEMNSLKPEDNAVYYCAKDQYYSLGPYSFGFDYWGQGTQVNVSS | low polyreactivity

Sequence | polyreactivity (PSR sort gate)
QVQLVESGGGLVQAGGSLRLSCAASGFTFGDYAMGWYRQAPGKERELVAAISRSGSNTYYADSVKGRFTISRDNAKNTVYLQMNSQKPEDTAVYYCNADYDPEDMDYWGQGTQVTVSS | low polyreactivity
QVQLVESGGGLVQAGGSLRLSCAASGFTFGDYAMGWYRQAPRKERELVAAISKRGGRTFYADSVKGRFTISRDNAKNTVYLQMNSLKPEDTAVYYCAKAGSFDYDYWGQGTQVTVSS | high polyreactivity
QVQLVESGGGLVQAGGSLRLSCAASGFTFGEYAMGWYRQAPGKEREFVAAISATGGSTYYADSVKGRFTISRDNAKNTVYLQMNSLKPEDTAVYYCAARDAYYDGYDYWGQGTQVTVSS | low polyreactivity
QVQLVESGGGLVQAGGSLRLSCAASGFTFGFNAMGWYRQAPGKEREFVASITYRGGSTYYADSVKGRFTISRDNAKNTVYLQMNSLKPEDTAVYYCAAASPWRRYISDYWGQGTQVTVSS | high polyreactivity
QVQLVESGGGLVQAGGSLRLSCAASGFTFGFYAMGWYIQAPGNERELVASITTRGGSTRYADSVKGRFTISRDNAKNTVYLQMNSLKPEDTAVYYCAAQYSYVRYLKRGYGYWGQGTQVTVSS | high polyreactivity
QVQLVESGGGLVQAGGSLRLSCAASGFTFGGYAMGWYRQAPGKERELVAAISGRGGRTYYADSVKGRFTISRDNAKNTVYLQMNSLKPEDTAVYYCAAPTNHWTLLSGDYWGQGTQVTVSS | high polyreactivity
QVQLVESGGGLVQAGGSLRLSCAASGFTFGGYAMGWYRQAPGKERELVAAISRSGGSTYYADSVKGRFIISRDNAKNTVYLQMNSLKPEDTAVYYCAAKTVSRARLYDYWGQGTQVTVSS | high polyreactivity
QVQLVESGGGLVQAGGSLRLSCAASGFTFGINAMGWYRQAPGKERELVAAINQSGDRTYYADSVKGRFTISRDNAKNTVYLQMNSLKPEDTAVYYCAGPSYWGGGRYRYGYWGQGTQVTVSS | high polyreactivity
QVQLVESGGGLVQAGGSLRLSCAASGFTFGNNGMGWYRQAPGKERELVATISWSGGSTYADSVKGRFTISRDNAKNTVYLQMNSLKPEDTAVYYCAAPYLSLYWYDYWGQGTQVTVSS | low polyreactivity
QVQLVESGGGLVQAGGSLRLSCAASGFTFGPYAMGWYRQAPGKERELVAAIRSGGSTNYADSVKGRFTISRDNAKNTVYLQMNSLKPEDTAVYYCAAGYRRGWVTMGYWGQGTQVTVSS | high polyreactivity
QVQLVESGGGLVQAGGSLRLSCAASGFTFGRYAMGWYRQAPGKERELVAAISSSGSSTYYADSVKGRFTLSRDNAKNTVYLQMNSLKPEDTAVYYCNTRCRKHPSSYPYDYWGQGTQVTVSS | high polyreactivity
QVQLVESGGGLVQAGGSLRLSCAASGFTFGRYAMGWYRQAPGKERELVATITRSGVNTYYADSVKGRFTISRDNAKNTVYLQMNSLKPEDTAVYYCAAVEIWYWGFTQYEYWGQGTQVTVSS | high polyreactivity
QVQLVESGGGLVQAGGSLRLSCAASGFTFGSNDMGWYRQAPVKERELVAAIDGSGDTYYADSVKGRFTISRDNAKNTVYLQMNSLKPEDTAVYYCAAGYTYYSLYGYWGQGTQVTVSS | low polyreactivity
QVQLVESGGGLVQAGGSLRLSCAASGFTFGSYAMGWYIQAPGKERELVARISSDGSTNYADSVKGRFTISRDNAKNTVYLQMNSLKPEDTAVYYSARDRKRQADDIGEFDYWGQGTQVTVSS | low polyreactivity
QVQLVESGGGLVQAGGSLRLSCAASGFTFGSYAMGWYRQAPGKERELVAAISWGGGSTYYADSVKGRFTISRDNAKNTVYLQMNSLKPEDTAVYYCNADAISSFGYWGQGTQVTVSS | high polyreactivity
QVQLVESGGGLVQAGGSLRLSCAASGFTFGVYAMGWYRPAPGKERELVAAITSGGGRTYADSVKGRFTISRDNAKNTVYLQMNSLKTEDTADYYCAAEGVPLRVVLDYSYWDYDYDYWGQGTQVTVSS | low polyreactivity
QVQLVESGGGLVQAGGSLRLSCAASGFTFGWYAMGWDIQAPGKERELLATISWSGSSTYYADSVKGLFTISRDNAKNTVYLQMNSLKPEDTAVYYCNAVYGGFVVLRYDYWGQGTQVTVSS | high polyreactivity
QVQLVESGGGLVQAGGSLRLSCAASGFTFGWYAMGWYRQAPGKEREFVAAISRSGGSTYYADSVKGRFTISRDNAKNTVYLQMNSLKPEDTAVYYCAAYIIGDTHAEYDYWGQGTQVTVSS | high polyreactivity
QVQLVESGGGLVQAGGSLRLSCAASGFTFGWYTMGWYRQAPGKERELDAAISLNGGSTYYADSVKGRFTISRDNAKNTVYLQMTSLKPEDTAVYYCAIRYRWPYYPYVYWGQGTQVTVSS | low polyreactivity
QVQLVESGGGLVQAGGSLRLSCAASGFTFGYNAMGWYRQAPGKERELVAAISSSGGSTYYADSVKGRFTISRDNAKNTVYLQMNSLKPEDTAVYYCAKRTPRKWGQGTQVTVSS | high polyreactivity
QVQLVESGGGLVQAGGSLRLSCAASGFTFGYNAMGWYRQAPGKERELVAAITSGGSTNYADSVKGRFTISRDNAKNTVYLQMNSLKPEDTAVYYCAVDPVRGRDYSWMDYWGQGTQVTVSS | low polyreactivity
